The values below are quoted from earlier work in PMC4316816.

As a reminder, the Kd is the free concentration of one partner at which half of the binding sites on the other are occupied at equilibrium, for simple one-to-one binding.

The data set addresses ANP (UniProt P01160).
Chain of UniProt P01160 (P01160 124-151): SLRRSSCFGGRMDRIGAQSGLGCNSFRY

GC-A/NPRA (from UniProt P16066): the dissociation constant (Kd) was 0.024 µM.
